Measurements from publication PMC3169596, “G4-DNA Formation in the HRAS Promoter and Rational Design of Decoy Oligonucleotides for Cancer Therapy”.

Biological target: T1, MAZ-GST (UniProt P56270 1-477)
T1 sequence: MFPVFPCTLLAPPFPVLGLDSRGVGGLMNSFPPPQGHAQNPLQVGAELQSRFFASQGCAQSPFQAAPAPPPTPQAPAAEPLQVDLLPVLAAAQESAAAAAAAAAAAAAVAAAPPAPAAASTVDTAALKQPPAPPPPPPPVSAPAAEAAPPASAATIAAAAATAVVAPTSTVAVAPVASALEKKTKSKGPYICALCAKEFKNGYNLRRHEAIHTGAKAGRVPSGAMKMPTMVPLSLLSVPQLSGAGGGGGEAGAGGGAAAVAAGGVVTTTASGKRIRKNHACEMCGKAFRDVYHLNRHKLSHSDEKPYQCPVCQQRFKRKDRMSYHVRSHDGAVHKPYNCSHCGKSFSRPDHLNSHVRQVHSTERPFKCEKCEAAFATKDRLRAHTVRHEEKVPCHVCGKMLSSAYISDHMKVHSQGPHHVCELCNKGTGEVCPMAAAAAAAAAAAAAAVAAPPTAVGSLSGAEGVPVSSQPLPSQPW
Experiment: EMSA; 50 mM KCl, pH 7.4, poly d(I-C); apparent Kd given for the HRAS quadruplexes together; EMSA: 20 mM Tris-HCl pH 8, 30 mM KCl, 1.5 mM MgCl2, 1 mM DTT, 8% glycerol, 5 mM NaF, 1 mM Na3VO4, 2.5 ng/ml poly[dI-dC], 30 min room temperature (Figure 6c: pH)
Settings: protein: recombinant; tags: GST; label: 33P; antiparallel intramolecular G4 in K+

TCGGGTTGCGGGCGCAGGGCACGGGCG (structured_DNA) [qhras-1 (quadruplex hras-1, H1)]
Kd: ~1500 nM
